Source: US20190144537A1
Numbering of substitutions follows the chain as printed.

B1: 28042.1 antibody (antibody, human IgG1, kappa, V domains shown)
VH: EVQLLESGGGLVQPGGSLRLSCAASGFTFSDYMMSWVRQAPGKGLEWVSWIRSSGGTTLYADSVKGRFTISRDNSKNTLYLQMNSLRAEDTATYYCARVGGGTTGYAFDIWGQGTMVTVSS
VL: DIQMTQSPSSLSASVGDRVTITCRASQSISSYLNWYQQKPGKAPKLLIYGASSLQSGVPSRVSGTGSGTDFTLTISSLQPEDFATYYCQQSYSPSFTFGPGTKVDFER
B2: 28042.2 antibody (antibody, human IgG1, kappa, V domains shown)
VH: B1 VH
VL: B1 VL with S31N, G50A

Biological target: cynoNotch3 monomer (cyno)
Experiment: binding to cynoNotch3 monomer at 25° C., protocol similar to that for hNotch3 (method not named)

| Binder | Kd |
| --- | --- |
| B1 | 5.35 nM |
| B2 | 214 nM |
